In the supplement of paper PMC9170038:

System: MS2 coat protein
Experiment: apparent KD of MS2 coat protein; designed switch direction (-1 OFF switch, 1 ON switch): -1; higher = weaker reporter binding
How it was run: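 Designed RNA switches with common flanks were transcribed on Illumina chips by stalled E. coli RNA polymerase and titrated with SNAP-549-labelled MS2 coat protein, from 0.7 or 1.5 nM doubling to 3 µM, in Tris-HCl pH 7.5 buffer with KCl, MgCl2, BSA, DTT, tRNA and Tween-20. Steps lasted 0.8–1.5 h (lowest) to 10–20 min (highest). Titrations ran without input, with 200 uM small-molecule ligand, or with an oligonucleotide input. Normalised cluster fluorescence was curve-fitted, and apparent KD is the per-design median over clusters.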

[1] = input ligand: microRNA oligo, concentration not stated
[2] = Eterna round: R95, input ligand: microRNA oligo, concentration not stated
[3] = Eterna round: R95, input ligand: FMN 200 uM
[4] = Eterna round: R95, input ligand: none

Sequence | apparent KD of MS2 coat protein (input ligand: FMN 200 uM) | apparent KD of MS2 coat protein (input ligand: none) | apparent KD of MS2 coat protein [1] | apparent KD of MS2 coat protein [2] | apparent KD of MS2 coat protein [3] | apparent KD of MS2 coat protein [4]
UUAAUAGCAGCGAGAUCCCACAUGAGGAUCACCCAUGUCGUAGACGAAAAGUCUACGUUAGCUCGUCUUAUAAAUAU [Winner reversed engineered 39] (Eterna round: R97, puzzle: Sensor, turn-off variant 1) | 95.1 nM | 111 nM | – | – | – | –
CGAUGCUCGAGUCGACAUGAGGAUCACCCAUGUACAGUUAGUGAGGAUAUCGGAGACACAUAGUAUGAGAAGGCGCGAACGUGA [Ex NG3 #16] (Eterna round: R96, puzzle: Exclusion NG 3) | 76.7 nM | 40.3 nM | 41.4 nM | – | – | –
AACUCUGAGAAGGAUAUUGUACGGGAAAUGGUACAAGAAGGUUUCACAUGAGGAUCACCCAUGUCGAAUAGUGA [EX6 #69] (Eterna round: R97, puzzle: Exclusion 6) | 34.7 nM | 22.9 nM | – | – | – | –
GUUUCGAGACGGAGAUCCGACAUGAGGAUCACCCAUGUCUCGCAAGCUUUUUGCUCGUCUUAUACUCCUCUGUUCUC [Elimod 46 - Jieux - Sensor, turn-off variant 1] (Eterna round: R97, puzzle: Sensor, turn-off variant 1) | 20.9 nM | 21.9 nM | – | – | – | –
AUAAUACAUGUAGGAUAUGCGUGGCGAAGCUAUGCAGAAGGACAUGAGGAUCACCCAUGUGCUAGCGUCUGCGUACAGAUGCUA [JL eng1 1.35 mod 3] (Eterna round: R96, puzzle: Exclusion NG 1) | 310 nM | 44.1 nM | 21 nM | – | – | –
GAGUGCUAAGGAUAUACAUGAGGAUCACCCAUGUGCUUCAGCUAGGAGACUAGCAUUGGUAGAAGGUAGUACUC [Mod of lroppy 2 - Jieux - Exclusion 3] (Eterna round: R97, puzzle: Exclusion 3) | 60.3 nM | 14.7 nM | – | – | – | –
UUAAUUAAUUUAAUAUAAGAUCACAUGAGGAUCACCCAUGUAUAGGAUAUCAGCUCGUUUAGAGCUGAGAAGGAUACAUAAUAU [ExNG3/2-B2] (Eterna round: R96, puzzle: Exclusion NG 3) | 292 nM | 230 nM | 328 nM | – | – | –
UUAGCUUCAGGAUAUACAGUGGGCUGGGAUCUAAAGAUCAAACAUGAGGAUCACCCAUGUAGAAGGGAACGGAA [Eternabot (L2) Solution 32] (Eterna round: R97, puzzle: Exclusion 2) | 380 nM | 145 nM | – | – | – | –
GGUGCGUUUGUGAGGAUAUGCUGGUCCUUGGAUCGGCAGAAGGCACAUGAGGAUCACCCAUGUGGUGUCGUACC [salish99_Bmod_Ex4_035] (puzzle: Brourd's mod of Exclusion 4) | – | – | – | 280 nM | – | –
CCUCAGUAAGGAUAUCAGCUUAUGGAGUUGGUAAUGAGAGCUGAGAAGGUACAUGAGGAUCACCCAUGUUAGUU [JL Zatite mod 2] (puzzle: Exclusion 4) | – | – | – | 25.4 nM | – | –
AUUUAACAUGAGGAUCACCCAUGUGAGGAUAUGCGAGUGUAGACUUCGGUCUGAUAGAGCAGAAGGCGCAGAUA [EX1 #9] (Eterna round: R97, puzzle: Exclusion 1) | 48.6 nM | 45 nM | – | – | – | –
CUUCACCCACCUGAGCUCACCCACAUACCUGCUCAGGUGACAUGAGGAUCACCCAUGUUUUUUGCCCGUCUUAUCUU [Soteonge] (puzzle: Sensor v3, turn-off variant 2) | – | – | – | 229 nM | 39.4 nM | 45.6 nM
GGUAGAGUGGUAGGAUAUCCGACUGAAACAGACGGAGAAGGACCACAGUCACUGGGUCCAAAUAUAAUAAACAAUAAAUCUACC [pwkr exNG1 F6.1] (Eterna round: R96, puzzle: Exclusion NG 1) | 307 nM | 331 nM | 212 nM | – | – | –
CUCCUCAUGGCGCCUAAACACAUGAGGAUCACCCAUGUACAGGCUCUUUGCCGUCUUAUAAUAAAACCGAGGAUGCG [Ageusan] (puzzle: Sensor v3, turn-off variant 1) | – | – | – | 219 nM | 40.2 nM | 36.4 nM
